Source: patent US6958151B2 (priority 2002, dated 2005)

What was measured:
WN-E-D3 = WN-E-D3 (West Nile virus, UniProt Q9Q6P4); type: binding
POW virus = test system: POW virus; design: species or system NIH Swiss mice; details: mouse, in vivo
[1] = iv via tail vein, five consecutive days, 16.7 μg/day, 10-day observation

Sequence	selected by binding (phage display) (WN-E-D3)	chance for survival (POW virus)	onset of disease / illness (POW virus)	toxicity to mice [1]
RCCTLRCKEGKKCR [MP-108]	selected by binding to WN-E-D3	–	–	–
RCCHPQCKEGKKCR (SEQ ID NO:157) [MP-100]	–	increases their chance for survival	delay in onset of disease	neither of the agents is toxic
RCCVSVCKEGKKCR [MP-107]	selected by binding to WN-E-D3	–	–	–
RCCREPCKEGRKCR [MP-106]	selected by binding to WN-E-D3	–	–	–
